In patent US20250257142A1 (INVETX, published 2025):
Each block holds one binder with its values, some of them ahead of it.

Key:
[1] = molecular target: T1, extracellular domain of canine IL-31RA fused to murine IgG2A Fc (canine); test: SPR Biacore T200, antibody captured on anti-human IgG chip, canine IL-31RA-mFc as analyte, 1:1 model
T1 construct: also called Canine IL-31RA-murine IgG2A Fc; Canine IL-31RA-mFc
T1 chain: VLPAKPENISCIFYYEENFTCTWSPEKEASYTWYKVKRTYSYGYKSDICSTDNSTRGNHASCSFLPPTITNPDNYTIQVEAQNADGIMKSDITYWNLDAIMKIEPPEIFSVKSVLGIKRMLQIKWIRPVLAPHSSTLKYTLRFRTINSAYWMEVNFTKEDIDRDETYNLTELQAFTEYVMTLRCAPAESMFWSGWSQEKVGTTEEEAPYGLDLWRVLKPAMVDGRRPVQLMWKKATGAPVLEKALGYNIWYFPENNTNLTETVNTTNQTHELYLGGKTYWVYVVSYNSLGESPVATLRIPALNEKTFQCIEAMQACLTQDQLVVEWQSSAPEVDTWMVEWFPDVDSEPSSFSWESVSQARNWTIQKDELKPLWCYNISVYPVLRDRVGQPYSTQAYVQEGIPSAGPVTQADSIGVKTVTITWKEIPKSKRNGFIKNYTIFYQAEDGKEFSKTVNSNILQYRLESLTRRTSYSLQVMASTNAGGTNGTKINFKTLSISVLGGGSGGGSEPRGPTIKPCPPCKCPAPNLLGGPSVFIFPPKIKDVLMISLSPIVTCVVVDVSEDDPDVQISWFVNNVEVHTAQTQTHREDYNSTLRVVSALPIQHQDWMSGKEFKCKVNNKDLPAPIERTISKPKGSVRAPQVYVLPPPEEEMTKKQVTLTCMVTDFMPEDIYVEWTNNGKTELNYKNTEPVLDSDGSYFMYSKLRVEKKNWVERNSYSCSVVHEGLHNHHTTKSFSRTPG
Procedure: Canine IL-31RA-murine IgG2A Fc was generated by transiently transfecting pcDNA3.4 containing Sequence 3 into GenScript HD (High Density) CHO-S cells and purified with MabSelect SuRe LX chromatography. Further purification of the recombinant protein was completed using gel filtration with TSKgel G3000SWxi chromatography. […] Antibodies were flowed over the anti-human IgG sensor chip at a concentration of 1 μg/ml in 1×HBS-EP+ (Cytiva, BR100826) for 60 seconds at a flow rate of 10 μL/min. Canine IL-31RA-mFc (100 nM, 50 nM, 25 nM, 12.5 nM, 6.25 nM, […]) solutions in 1×HBS-EP+ was flown over the sensor chips for a contact time of 120 s and a dissociation time of 600 s at a flow rate of 30 μL/min. Double reference-subtracted sensorgrams were fitted to a 1:1 binding model using Biacore T200 Evaluation software and the kinetics of binding are shown below in Table 4.

[2] = molecular target: canine IL-31 receptor alpha (IL-31RA) on canine DH-82 cells (canine); test: cell-based or functional assay
[3] = molecular target: T1, extracellular domain of canine IL-31RA …; test: SPR Biacore T200, antibody captured on anti-dog H+L chip, canine IL-31RA-mFc as analyte; relative affinity scale: *** 3 pM-100 pM, ** 101 pM-1 nM, * 1.1 nM-20 nM (avidity)
Procedure: (§1) Seven days following the transient transfection, the IgG in the conditioned medium was purified using MabSelect SuRe chromatography. The antibodies were buffer-exchanged into PBS, pH 7.4. The relative affinity of the variants was determined by SPR on a Biacore T200. The antibody was captured using a CM5 Series S chip amine coupled with an anti-dog H+L antibody (Jackson Immunoresearch). Canine IL-31RA-mFc (100 nM, 50 nM, 25 nM, 12.5 nM, 6.25 nM, 3.625 nM) solutions in 1×HBS-EP+ was flown over the sensor chip for a contact time of 120 s and a dissociation time of 600 s at a flow rate of […]. Double reference-subtracted sensorgrams were fitted to a 1:1 binding model using Biacore T200 Evaluation software. The canine IL-31RA antigen was both a dimer and aggregated so there were avidity effects with the measured affinities. […] Following the initial results with the single variants, a heavy chain containing the W53F variant and the M118I variant was synthesized and subcloned into pcDNA 3.4 (SEQ ID NO:18). The same methods as described above for expression and purification of the variant along with measuring the relative affinity were used to determine the relative affinity of the W53F/M118I heavy chain variant combined with the S95A light chain and the N94Q light chain variants.

[4] = molecular target: T2, canine IL-31RA (20-308)-AviTag-His Tag, monomeric (canine); test: SPR Biacore T200, antibody captured on anti-dog H+L chip, monomeric canine IL-31RA (20-308) as analyte
T2 construct: Signal peptide (first 19 residues) left out; also called monomeric IL-31RA
T2 chain: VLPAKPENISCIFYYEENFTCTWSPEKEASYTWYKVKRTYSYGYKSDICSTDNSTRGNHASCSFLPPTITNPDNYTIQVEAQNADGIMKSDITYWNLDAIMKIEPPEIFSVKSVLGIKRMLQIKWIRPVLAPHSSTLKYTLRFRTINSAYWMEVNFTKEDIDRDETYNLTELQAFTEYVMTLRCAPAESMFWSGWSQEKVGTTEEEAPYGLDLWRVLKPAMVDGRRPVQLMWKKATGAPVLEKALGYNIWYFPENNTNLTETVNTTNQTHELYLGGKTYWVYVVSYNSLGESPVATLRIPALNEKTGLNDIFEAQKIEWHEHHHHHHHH
Procedure: as §1, with “The” for “Seven days following the transient transfection, the IgG in the conditioned medium was purified using MabSelect SuRe chromatography. The antibodies were buffer-exchanged into PBS, pH 7.4. The relative affinity of the variants was determined by SPR on a Biacore T200. The”
To reduce the avidity effects from using the canine IL-31RA-mouse Fc construct in SPR experiments, a monomeric construct was generated which contains amino acids 20-308 of the canine IL-31IRA extracellular domain (SEQ ID NO:28). This construct has the AviTag sequence ([…] (SEQ ID NO:51)) followed by an 8×His(SEQ ID NO:52) tag to facilitate purification. GenScript HD (High Density) CHO-S cells were transiently transfected with pcDNA 3.4 containing Sequence 28 and purified with HisTrap FF chromatography. Further purification of the recombinant protein was completed using gel filtration with Cytiva HiLoad 26/600 Superdex chromatography to isolate the monomeric IL-31RA species. […] These clones were evaluated in an SPR experiment using the same conditions as described for the caninized clones except the analyte is canine IL-31RA (20-308).

Kd [1]: 1.81 nM
koff [1]: 0.000118 s⁻¹
kon [1]: 65200 M⁻¹ s⁻¹
IC50 (read off the curve) [2]: ~10 nM
B1: Clone 186 (human antibody 186, human IgG1) (antibody, V domains shown)
VH: EVQLLESGGGLIQPGGSLRLSCGASGFTFSSYAMSWVRQAPGKGLEWVSAISGSGNSTYYADSVKGRFTISRDNSKNTLYLQMNSLRAEDTAVYYCATQVVYYFKMDVWGKGTTVTVSS
VL: EIVMTQSPATLSVSPGERATLSCRASQSVSSNLAWYRQKPGQAPRLLIYGASTRATGIPARFSGSGSGTEFTLTISSLQSEDFAVYYCQQYYNWPPFTFGPGTKLDIKR

Kd [1]: 0.506 nM
koff [1]: 0.000108 s⁻¹
kon [1]: 214000 M⁻¹ s⁻¹
IC50 (read off the curve) [2]: ~4 nM
B2: Clone 109 (human antibody 109, human IgG1) (antibody, V domains shown)
VH: EVQLVESGGGVVRPGGSLRLSCAASGFTFDDYGMSWVRQIPGRGLEWVSGINWAGGTIGYADSVKGRFTVSRDDANNSLYLQMNSLRAEDTALYLCARESPLRLGDLGGDYFYYYYYMDVWGKGTTVTVSS
VL: EIVLTQSPGTLSLSPGERATLSCRASQSVSSRYLVWYQQKPGQAPRLLIYGTSSRATGIPDRFSGSGSGTDFTLTISRLEPEDFAVYYCQQYDNSPRTFGQGTKVEIKR

binding result [3]: binds
Kd [4]: 2.31 nM
koff [4]: 0.000161 s⁻¹
kon [4]: 69800 M⁻¹ s⁻¹
B3: 186-95_QLF (186-95 containing the N56Q, M106L, and W94F variants) (antibody, V domains shown)
VH: EVQLVESGGDLVKPGGSLRLSCVASGFTFSSYAMSWVRQAPGKGLQWVSAISGSGQSTYYADAVKGRFTISRDNAKNTLYLQMNSLRAEDTAVYYCATQVVYYFKLDVWGQGTLVTVSS
VL: EIVMTQSPGSLAGSAGESVSINCKSSQSVSSNLAWYQQKPGERPKLLIYGASTRASGVPARFSSSGSGTDFTLTINNLQAEDVGDYYCQQYYNFPPFTFGQGTKLEIKR
notes: Canine IgGB/kappa; signal peptides left out; also called N56Q-M106L / W94F
